Columns and labels:
X1HAS1 [1] = molecular target: T1, X1HAS1 (Xenopus laevis, UniProt P13563); assay: Substrate turnover rate quantification (UDP release, enzyme-coupled assay); assay type: biochemical; details: for Km: one substrate titrated at saturating concentration of the other, real-time quantification of released UDP, read-out: Michaelis-Menten constant
T1 construct: dodeca-histidine (His12) (N); made in house; host or cells: Spodoptera frugiperda Sf9 cells (baculovirus)
T1 sequence (P13563 1-588): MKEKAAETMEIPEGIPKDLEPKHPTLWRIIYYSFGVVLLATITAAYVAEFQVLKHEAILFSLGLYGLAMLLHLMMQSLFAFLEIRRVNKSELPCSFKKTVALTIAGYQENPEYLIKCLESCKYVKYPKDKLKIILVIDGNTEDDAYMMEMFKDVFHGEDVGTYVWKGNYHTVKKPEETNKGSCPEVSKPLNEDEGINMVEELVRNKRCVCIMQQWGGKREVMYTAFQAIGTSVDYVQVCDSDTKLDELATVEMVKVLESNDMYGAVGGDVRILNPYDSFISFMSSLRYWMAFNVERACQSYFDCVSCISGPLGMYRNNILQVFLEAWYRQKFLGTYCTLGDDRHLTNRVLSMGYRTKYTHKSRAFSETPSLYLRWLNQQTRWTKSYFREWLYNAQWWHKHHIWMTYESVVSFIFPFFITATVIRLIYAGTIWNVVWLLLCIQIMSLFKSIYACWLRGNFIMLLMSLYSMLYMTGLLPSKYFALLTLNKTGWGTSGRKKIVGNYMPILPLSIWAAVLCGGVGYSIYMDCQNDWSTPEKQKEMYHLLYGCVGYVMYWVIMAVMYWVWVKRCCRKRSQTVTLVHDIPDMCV
Method: UDP release during HA synthesis was quantified using an enzyme-coupled assay as previously described (10, 13). Depletion of NADH was monitored at 340 nm every 60 s for 3 hours at 37° C. in a SpectraMax instrument. The raw data was processed in MS Excel and a linear phase of each reaction was determined. The rate of NADH depletion was converted to pmoles of UDP released using a UDP standardized plot (FIG. S1C) for Michaelis-Menten constant determination using GraphPad Prism. For substrate turnover rate quantification of X1HAS1 mutants, pmoles of released UDP were converted to the number of corresponding substrate turnovers per molecule of X1HAS1, per minute. Data is presented relative to wild type activity. All experiments were performed in four to eight replicates and error bars represent standard deviation from the means.
HAS transfers the UDP-activated glycosyl unit (the donor sugar) to the non-reducing end of the nascent HA polymer (the acceptor sugar). This reaction generates UDP and elongated HA as reaction products (FIG. 1A). Catalytic activity can be assessed by monitoring the release of UDP in an enzyme-coupled reaction, as previously described (10, 13), or quantifying HA, either radiometrically or by dye staining following electrophoresis.

[2] = system: Hyaluronic acid synthesis; details: cited from earlier work
X1HAS1 [3] = molecular target: T1, X1HAS1; assay: Electrophoretic HA size determination (agarose gel, Stains-all) of in vitro synthesized HA; assay type: biochemical
Method: To assess the size of HA synthesized by X1HAS1, similar reaction conditions were applied to the ones described above. […] […] Controls were carried out by digesting the synthesized polymers with hyaluronidase. Synthesis reactions were mixed with SDS-PAGE loading dye and applied to a 1% agarose gel (Ultra-pure agarose, Invitrogen) casted in an Owl B2 system (ThermoFisher). […] After the run, the gel was equilibrated in 50% ethanol for 1.5 h and subjected to staining in 0.05% Stains-all (Sigma) in 50% ethanol overnight under light-protection. Post-staining background was reduced by soaking the gel in 20% ethanol for 3-7 days in the dark. The migration of the synthesized HA species was compared to HA standards from Streptococcus equi (Sigma), as well as enzymatically generated ladders: HA LoLadder and HA HiLadder (Hyalose).

HAS isoforms = details: cited from earlier work

Work on O=C(O)[C@H]1O[C@H](OP(=O)(O)OP(=O)(O)OC[C@H]2O[C@@H](n3ccc(=O)[nH]c3=O)[C@H](O)[C@@H]2O)[C@H](O)[C@@H](O)[C@@H]1O [UDP-GlcA, reference compound] yielded a Km (X1HAS1 [1]) of ~370 µM.

Molecule CC(=O)N[C@H]1[C@@H](OP(=O)(O)OP(=O)(O)OC[C@H]2O[C@@H](n3ccc(=O)[nH]c3=O)[C@H](O)[C@@H]2O)O[C@H](CO)[C@@H](O)[C@@H]1O [UDP-GlcNAc, reference compound] has a Km (X1HAS1 [1]) of ~470 µM.

For Cc1cc(=O)oc2cc(O)ccc12 [4-methylumbelliferone], the “effect on hyaluronic acid synthesis” value [2] is listed as “inhibited”.

B1: X1HAS1: Xenopus laevis HA synthase isoform 1, wild type (Uniprot P13563, SEQ ID NO: 9) (protein, UniProt P13563 1-588, looked up)
Hyaluronan synthase 1: T1 sequence (P13563 1-588)
For B1, the “activity reduction when manganese is used instead of magnesium as cofactor” value (X1HAS1 [1]; Mn2+ instead of Mg2+) was “about 30%”, the overall catalytic rate (X1HAS1 [1]; UDP release) was “approximately 30 substrate turnovers per minute” and the “HA production with Mn2+” value (X1HAS1 [3]; agarose gel assay, Mn2+ versus Mg2+) was “reduces HA production slightly”. The “catalytic rate suggested by electrophoretic analysis versus rate by UDP quantification” value (X1HAS1 [3]; based on ~1.6 MDa produced within 90 min) was “about 2 times”, the “size of HA polymers with sustained high substrate” value (X1HAS1 [3]; both substrates (2.5 mM) supplemented at 2, 4, 6 h, UDP converted to UTP) was > 1.6 MDa and the “size of HA polymers synthesized at completion” value (X1HAS1 [3]; in vitro synthesis, relative to HA marker) was > 1.6 MDa. For the same molecule, the HA product length (X1HAS1 [3]; produced within 90 min) was ~ 1.6 MDa, the “change of HA size with one substrate limiting” value (X1HAS1 [3]; substrate replenishing, UDP-GlcNAc at 0.1-1 mM) was “no increase in HA size” and the “maximum HA extension” value (X1HAS1 [3]; without UDP removal, 2.5 mM of both substrates) was ~1.6 MDa.

B2: HAS1: human HA synthase isoform 1 (protein, UniProt Q92839 1-578, looked up)
Hyaluronan synthase 1: MRQQDAPKPTPAACRCSGLARRVLTIAFALLILGLMTWAYAAGVPLASDRYGLLAFGLYGAFLSAHLVAQSLFAYLEHRRVAAAARGPLDAATARSVALTISAYQEDPAYLRQCLASARALLYPRARLRVLMVVDGNRAEDLYMVDMFREVFADEDPATYVWDGNYHQPWEPAAAGAVGAGAYREVEAEDPGRLAVEALVRTRRCVCVAQRWGGKREVMYTAFKALGDSVDYVQVCDSDTRLDPMALLELVRVLDEDPRVGAVGGDVRILNPLDSWVSFLSSLRYWVAFNVERACQSYFHCVSCISGPLGLYRNNLLQQFLEAWYNQKFLGTHCTFGDDRHLTNRMLSMGYATKYTSRSRCYSETPSSFLRWLSQQTRWSKSYFREWLYNALWWHRHHAWMTYEAVVSGLFPFFVAATVLRLFYAGRPWALLWVLLCVQGVALAKAAFAAWLRGCLRMVLLSLYAPLYMCGLLPAKFLALVTMNQSGWGTSGRRKLAANYVPLLPLALWALLLLGGLVRSVAHEARADWSGPSRAAEAYHLAAGAGAYVGYWVAMLTLYWVGVRRLCRRRTGGYRVQV
For B2, the “HA polymer size” value (HAS isoforms) is given as “several megadaltons”.

B3: HAS2: human HA synthase isoform 2 (protein, UniProt Q92819 1-552, looked up)
Hyaluronan synthase 2: MHCERFLCILRIIGTTLFGVSLLLGITAAYIVGYQFIQTDNYYFSFGLYGAFLASHLIIQSLFAFLEHRKMKKSLETPIKLNKTVALCIAAYQEDPDYLRKCLQSVKRLTYPGIKVVMVIDGNSEDDLYMMDIFSEVMGRDKSATYIWKNNFHEKGPGETDESHKESSQHVTQLVLSNKSICIMQKWGGKREVMYTAFRALGRSVDYVQVCDSDTMLDPASSVEMVKVLEEDPMVGGVGGDVQILNKYDSWISFLSSVRYWMAFNIERACQSYFGCVQCISGPLGMYRNSLLHEFVEDWYNQEFMGNQCSFGDDRHLTNRVLSLGYATKYTARSKCLTETPIEYLRWLNQQTRWSKSYFREWLYNAMWFHKHHLWMTYEAIITGFFPFFLIATVIQLFYRGKIWNILLFLLTVQLVGLIKSSFASCLRGNIVMVFMSLYSVLYMSSLLPAKMFAIATINKAGWGTSGRKTIVVNFIGLIPVSVWFTILLGGVIFTIYKESKRPFSESKQTVLIVGTLLYACYWVMLLTLYVVLINKCGRRKKGQQYDMVLDV
In the case of B3, the “HA polymer size” value (HAS isoforms) is listed as “several megadaltons”.

Source: US20260286413A1, “HYALURONAN SYNTHESIS, SECRETION AND LENGTH CONTROL” (UNIVERSITY OF VIRGINIA, priority 2023, published 2026)
